Variants at the floor of the assay were thinned out.
B1: TPR 5TU (parent)
chain: GGAUCUUCUCGAUCUAACAAAAAAGACAAAUCUGCCACAAAGCUUGAGAGCAUCUUCGGAUGCAGAGGCGGCAGCCUUCGGUGGCGCGAUAGCGCCAACGUUCUCAACUAUGACACGCAAAACGCGUGCUCCGUUGAAUGGAGUUUAUCAUG

Variants of: B1
Experiment: polymerase ribozyme fitness, log enrichment relative to wild type (log ratio); higher = more active; in vitro selection for triplet polymerase activity
Procedure, shortened: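 Each subunit of a heterodimeric triplet polymerase ribozyme was mutagenized into a library by PCR, transcribed, and subjected to one round of in vitro selection, run in triplicate. Libraries were annealed with a biotinylated primer, the partner subunit and triplets, incubated frozen at −7 °C, and extended constructs were gel-excised, captured on streptavidin beads and recovered by RT-PCR. Input and output libraries were sequenced on Illumina, keeping genotypes with ≥10 input reads and ≥1 read per output. Fitness is log base 2 of genotype enrichment divided by wild-type enrichment, from inverse-variance-weighted replicate averages.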

Compared with GGAUCUUCUCGAUCUAACAAAAAAGACAAAUCUGCCACAAAGCUUGAGAGCAUCUUUGGAUGCAGAGGCGGCAGCCUUCGGUGGCGCGAUUGCGCCAACGUUCUCAACUAUGACACGCAAAACGCGUGCUCCGUUGAAUGGAGUUUAUCAUG [C57U A91U], GGAUCUUCUCGAUCUAACAAAAAAGACAAAUCUGCCACAAAGCUUGAGAGCAUCUUUGGAUGCAGAGGCGGCAGCCUUAGGUGGCGCGAUAGCGCCAACGUUCUCAACUAUGACACGCAAAACGCGUGCUCCGUUGAAUGGAGUUUAUCAUG [C57U C79A] is lower in “polymerase ribozyme fitness (log ratio)” value: -3.95 for the first, -4.19 for the second.

Compared with GGAUCUUCUCGAUCUAACAAAAAAGACAAAUCUGCCACAAAGCUUGAGAGCAUCUUGGGAUGCAGAGGCGGCAGCCUUCGGUGGCGCGAUAGCGCCAACGUUCUCAACUAUGACACGCAAAACGAGUGCUCCGUUGAAUGGAGUUUAUCAUG [C57G C125A], GGAUCUUCUCGAUCUAACAAAAAAGACAAAUCUGCCACAAAGCUUGAGAGCAUCUUGGGAUGCAGAGGCGGCAGCCUUCGGUGGCGCGAUAGCGCCAACGUUCUCAACUAUGACACGCAAAACUCGUGCUCCGUUGAAUGGAGUUUAGCAUG [C57G G124U U148G] is lower in “polymerase ribozyme fitness (log ratio)” value: -0.508 for the first, at most -4.2 for the second.

Going from GGAUCUUCUCGAUCUAACAAAAAAGACAAAUCUGCCACAAAGCUUGAGAGCAUCUUUGGAUGCAGGGGCGGCAGCCUUCGGUGGCGCGAUAGCGCCAACGUUCUCAACUAUGACACGCAAAACGCGUGCUCCGUUGAAUGGAGUUUAUCAUG [C57U A66G] to GGAUCUUCUCGAUCUAACAAAAAAGACAAAUCUGCCACAAAGCUUGAGAGCAUCUUUGGAUGCAGAGGCGGCAGCCUUCGGUGGUGUGAUAGCGCCAACGUUCUCAACUAUGACACGCAAAACGCGUGCUCCGUUGAAUGGAGGUUAUCAUG [C57U C85U C87U U144G], the “polymerase ribozyme fitness (log ratio)” value rises from -3.4 to -0.0249.

Going from GGAUCUUCUCGAUCUAACAAAAAAGACAAAUCUGCCACAAAGCUUGAGAGCAUCUUGGGAUGCAGAGGCGGCAGCCUUCGGUGGCGCGAUAGCGCCAACGUUCUCAACUAUGACACUCAAAACCCGUGCUCCGUUGAAUGGAGUUUAUCAUG [C57G G117U G124C] to GGAUCUUCUCGAUCUAACAAAAAAGACAAAUCUGCCACAAAGCUUGAGAGCAUCUUGGAAUGCAGAGGCGGCAGCCUUCUGUGGCGCGAUAUCGCCAAAGUUCUCAACUAUGACACGCAAAACGCGUGCUUCGUAGAAUGGAGUUUAUCAUG [C57G G59A G80U G92U C99A C131U U135A], the “polymerase ribozyme fitness (log ratio)” value falls from -1.64 to -3.22.

Compared with GGAUCUUCUCGAUCUAACAAAAAAGACAAAUCUGCCACAAAGCUUGAGAGCAUCUUUGGAUGCAGAGGCGGCAGCCUUCGGUGGCGCGAUAGCGACAACGUUCUCAACGAUGACACGCAAAACGCGUGCUCCGUUGAAUGGAGUUUAUCAUG [C57U C95A U109G], GGAUCUUCUCGAUCUAACAAAAAAGACAAAUCUGCCACAAAGCUUGAGAGCAUCUUGGGAUGCAGAGGCGGCAGCCUUCGGUGGCUCGAUAGCGCCAACGUUCUCAACUAUGACACGCAAAACGCGUGCUCCGUUGAAUGGAGUUUAUCAUG [C57G G86U] is lower in “polymerase ribozyme fitness (log ratio)” value: -0.696 for the first, -1.26 for the second.

First: GGAUCUUCUCGAUCUAACAAAAAAGACAAAUCUGCCACAAAGCUUGAGAGCAUCUUUGGAUGCAGAGGCGGCAGCCUUCGGUGGCGCGAUAGCGACAACGUUCUCAACUAUGACACGCAAAACGCGUGCUCCGUUAAAUGGAGUUUAUCAUG [C57U C95A G136A]
Second: GGAUCUUCUCGAUCUAACAAAAAAGACAAAUCUGCCACAAAGCUUGAGAGCAUCUUUGGAUGCAGAGGCGGCAGCCUUCGGUGGUGCGAUAGCGCCAACGUUCUCAACUAUGACACGCAAAACGCGUGCUCCGUUGAAUGGAGUUGAUCAUG [C57U C85U U146G]
The “polymerase ribozyme fitness (log ratio)” value of the first is higher: -0.1 for the first, -1.44 for the second.

Compared with GGAUCUUCUCGAUCUAACAAAAAAGACAAAUCUGCCACAAAGCUUGAGAGCAUCUUUGGAUGCAGAGGAGGCAGCCUUCGGUGUCGCGAUAGCGCCAACGUUCUCAACUAUGACACGCAACACGCGUGCUCCGUUGAAUGGAGUUUAUCAUG [C57U C69A G84U A121C], GGAUCUUCUCGAUCUAACAAAAAAGACAAAUCUGCCACAAAGCUUGAGAGCAUCUUGGGAUGCAGAGGCGGCAGCCUUCGGUGGCGCGAUAGCGCCAACGUUCUCAACUAUGACACGCAAAACGCGUGCUCCGUUGAAUCGAGUUUAUCAUG [C57G G140C] is lower in “polymerase ribozyme fitness (log ratio)” value: -2.25 for the first, -4.08 for the second.

Compared with GGAUCUUCUCGAUCUAACAAAAAAGACAAAUCUGCCACAAAGCUUGAGAGCAUCUUGGGAUGCAGAGGCGGCAGCCUUCGGUGUCGCGAUAGCGCCAACGUUCUCAACUAUGACACGCAAAACGCGUGCUCCGUUGAAUGGAGUUUAUCAUG [C57G G84U], GGAUCUUCUCGAUCUAACAAAAAAGACAAAUCUGCCACAAAGCUUGAGAGCAUCUUGGGAUGCAGAGGCGGCAGCCUUCGGUGACGCGAUAGCGCCAACGUUCUCAACUAUGACACGCAAAACGCGUGCUCCGUUGAAUGGAGUUUAUCAUG [C57G G84A] is higher in “polymerase ribozyme fitness (log ratio)” value: -1.79 for the first, -0.518 for the second.

Going from GGAUCUUCUCGAUCUAACAAAAAAGACAAAUCUGCCACAAAGCUUGAGAGCAUCUUGGAAUGCAGAGGCGGCAGCCUUCGGUGGCGCGAUAGCGCCAACGUUCUCAACUAUGACACGUAAAACGAGUGCUCCGUUCAAUGGAGUUUAUCAUG [C57G G59A C118U C125A G136C] to GGAUCUUCUCGAUCUAACAAAAAAGACAAAUCUGCCACAAAGCUUGAGAGCAUCUUGGAAUGCAGAGGCGGCAGCCUGCGGUGACGCGAUAGCGCCAACGUUCUCAACUAUGACACGCAAAACGCGUGCUCCGUUGAAUGGAGUUUAUCAUG [C57G G59A U78G G84A], the “polymerase ribozyme fitness (log ratio)” value falls from -3.19 to at most -4.2.

In the case of GGAUCUUCUCGAUCUAACAAAAAAGACAAAUCUGCCACAAAGCUUGAGAGCAUCUUUGGAUGCAGAGGCGGCAGCCUUCGGUGGCGCGAUAGCGCCUACGUUCUCAACUAUGACACGCAAAACGCGUGCUCCGUUGAAUGGAGUUUAUCAUG [C57U A97U], the “polymerase ribozyme fitness (log ratio)” value is reported as -1.22.

Reference: the RNAGym collection of RNA variant scans (doi:10.1073/pnas.2313332121)
